# According to patent US20090304768A1, “Gastro-Retentive System for the Delivery of Macromolecules” (INTEC PHARMA LTD, priority 2006, published 2009):
# How the values were obtained:
# [1] = Stability assay of PTH 1-34 in various buffer solutions over 24 hr at 37° C.; format: physicochemical
# Experimental: The stability of PTH 1-34 in various buffer solutions over 24 hr at 37° C. was evaluated to allow selection of a suitable buffer for in vitro release experiments. The lyophilized peptide (0.1 mg) was dissolved in each buffer solution that was tested. The concentration of PTH 1-34 in samples withdrawn from the solution at 0, 4, 8, and 24 hours were analyzed by HPLC (Gemini (Phenomenex) 5 μ C18, 250×4.6; mobile phase˜0.1% Trifluoroacetic acid/Acetonotrile:0.1% Trifluoroacetic acid/Water, gradient elution, 1 mL/min; 100 μL injection, UV PDA detection at 214).
# [2] = Stability of the peptide in 1% acid solution, incubation for 24 hr at 37° C.; format: physicochemical; conditions: 1% acetic acid
# Experimental: PTH 1-34 (molecular weight of 4117.8, UCB Bioproducts, USA) was received as a lyophilized powder. The peptide was made up in 1% acetic acid. The stability of the peptide in 1% acid solution was confirmed by incubating it for 24 hr at 37° C.
substance,measurement,setting,value
"PTH 1-34: Parathyroid hormone fragment 1-34, molecular weight 4117.8, UCB Bioproducts, lyophilized powder",stability at pH=2.2 over 24 hr,"[1]; KCl/Cl buffer pH=2.2, over 24 hr",stable
same,stability at pH=1.2,"[1]; buffer pH=1.2, 37° C.",decreased stability
same,stability at pH>7,"[1]; buffer pH>7, 37° C.",decreased stability
same,stability in various buffer solutions,"[1]; various buffer solutions, 24 hr at 37° C.",stable over a wide range of pH values
same,stability of the peptide in 1% acid solution,[2],confirmed
